B1: Rad51 (natural protein, S. cerevisiae, UniProt P25454 1-400, looked up)
chain: MSQVQEQHISESQLQYGNGSLMSTVPADLSQSVVDGNGNGSSEDIEATNGSGDGGGLQEQAEAQGEMEDEAYDEAALGSFVPIEKLQVNGITMADVKKLRESGLHTAEAVAYAPRKDLLEIKGISEAKADKLLNEAARLVPMGFVTAADFHMRRSELICLTTGSKNLDTLLGGGVETGSITELFGEFRTGKSQLCHTLAVTCQIPLDIGGGEGKCLYIDTEGTFRPVRLVSIAQRFGLDPDDALNNVAYARAYNADHQLRLLDAAAQMMSESRFSLIVVDSVMALYRTDFSGRGELSARQMHLAKFMRALQRLADQFGVAVVVTNQVVAQVDGGMAFNPDPKKPIGGNIMAHSSTTRLGFKKGKGCQRLCKVVDSPCLPEAECVFAIYEDGVGDPREEDE

Assay [1] has as its target T1, GFP–Rad55–Rad57 complex (His6–GFP–Rad55 and FLAG–Rad57) (S. cerevisiae, UniProt P38953 1-406; P25301 1-460).
T1 sequence (looked up) 1: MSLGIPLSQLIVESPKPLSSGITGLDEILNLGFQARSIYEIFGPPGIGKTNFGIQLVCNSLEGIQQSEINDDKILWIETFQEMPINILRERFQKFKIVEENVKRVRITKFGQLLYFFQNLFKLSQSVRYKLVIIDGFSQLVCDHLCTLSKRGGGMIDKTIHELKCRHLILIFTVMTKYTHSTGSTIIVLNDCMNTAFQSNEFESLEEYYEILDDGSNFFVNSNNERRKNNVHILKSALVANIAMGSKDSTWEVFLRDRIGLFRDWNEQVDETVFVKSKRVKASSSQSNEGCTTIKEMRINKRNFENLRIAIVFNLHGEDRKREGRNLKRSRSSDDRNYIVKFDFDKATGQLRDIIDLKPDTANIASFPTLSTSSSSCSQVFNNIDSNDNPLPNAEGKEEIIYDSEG
T1 sequence (looked up) 2: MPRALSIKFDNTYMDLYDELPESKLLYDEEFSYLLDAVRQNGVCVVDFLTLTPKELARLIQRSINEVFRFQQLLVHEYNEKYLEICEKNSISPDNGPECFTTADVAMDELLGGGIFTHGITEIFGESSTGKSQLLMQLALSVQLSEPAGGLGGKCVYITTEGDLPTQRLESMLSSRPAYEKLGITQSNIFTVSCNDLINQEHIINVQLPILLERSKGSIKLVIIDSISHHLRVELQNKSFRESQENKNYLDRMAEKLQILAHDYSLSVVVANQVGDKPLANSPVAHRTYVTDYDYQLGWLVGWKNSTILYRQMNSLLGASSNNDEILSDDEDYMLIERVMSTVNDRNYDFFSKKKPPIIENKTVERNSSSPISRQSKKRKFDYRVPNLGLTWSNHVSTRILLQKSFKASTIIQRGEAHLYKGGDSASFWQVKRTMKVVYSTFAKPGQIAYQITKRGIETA
Nature of the assay: single-molecule ssDNA curtain assay.

The target in the assay “Rad51” is B1. The experiment in a line: single-molecule ssDNA curtain assay.

In assay [1], B1 came in with a koff of 0.00758 s⁻¹.

B2: Rad51–K191R (natural protein, S. cerevisiae, UniProt P25454 1-400, looked up)
chain: MSQVQEQHISESQLQYGNGSLMSTVPADLSQSVVDGNGNGSSEDIEATNGSGDGGGLQEQAEAQGEMEDEAYDEAALGSFVPIEKLQVNGITMADVKKLRESGLHTAEAVAYAPRKDLLEIKGISEAKADKLLNEAARLVPMGFVTAADFHMRRSELICLTTGSKNLDTLLGGGVETGSITELFGEFRTGRSQLCHTLAVTCQIPLDIGGGEGKCLYIDTEGTFRPVRLVSIAQRFGLDPDDALNNVAYARAYNADHQLRLLDAAAQMMSESRFSLIVVDSVMALYRTDFSGRGELSARQMHLAKFMRALQRLADQFGVAVVVTNQVVAQVDGGMAFNPDPKKPIGGNIMAHSSTTRLGFKKGKGCQRLCKVVDSPCLPEAECVFAIYEDGVGDPREEDE
As to B2, the koff in assay [1] came to 0.0058 s⁻¹.

B3: GST–Hed1–6xHis–GFP (natural protein, S. cerevisiae, UniProt Q03937 1-162, looked up)
chain: MQQRSNRRSCSYIPLGVHNNAEKSLCTEVAPARKNKRSITTSPIVNINVVERRLFNLELEKQQLRAKNLSENTGGGSPNGGAYLDAKKGVREQDQYQGGPSKELDRLQPPPSMKKSPPRKKKSLKDLIYETNKTFYQVDSNKVKYKVGLSKKQLLPSKTVDN
In the case of B3, in the assay with Rad51, the binding result is on record as “binds”.

Source of the values: doi:10.1101/2020.11.04.367136 (bioRxiv, 2020).
